Test results taken from PMC12535091.

Molecular target: Human β2GPI domain deletion mutant DI-DIV (human)
Assay: ELISA; β2GPI or domain deletion mutants coated on Maxisorb plates at 1 µM overnight at 4 °C; Apo E-Biotin 50 nM, 1 h at RT; streptavidin-HRP, OD 450; % of binding to full length β2GPI

Human Apo E2, biotinylated (from UniProt P02649 19-317) (natural protein)
% binding: 42.5%
